# Test results from patent US20210388087A1 (Chugai, published 2021).
# Positions count from the first letter of the chain named. In names and notes the source's numbering stands.
# T1: Human CD3eg linker (human)
# T1 construct: Single chain: epsilon and gamma subunits of human CD3 joined by a 29-mer linker, Flag-tag at the C-terminus; also called recombinant human CD3
# T1 chain: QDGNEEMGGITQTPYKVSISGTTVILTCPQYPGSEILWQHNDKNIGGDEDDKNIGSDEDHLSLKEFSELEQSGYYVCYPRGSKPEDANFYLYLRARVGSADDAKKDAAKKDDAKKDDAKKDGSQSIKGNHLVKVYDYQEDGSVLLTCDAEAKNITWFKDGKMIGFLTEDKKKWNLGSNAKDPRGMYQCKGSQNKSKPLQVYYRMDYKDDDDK
# B1: H183/L072 VH A54E (antibody, name in Kabat numbering, V domains shown)
# VH: QVQLVESGGGLVQPGRSLRLSCAASGFTFSNAWMHWVRQAPGKGLEWVAQIKDKGNEYAAYYAPSVKGRFTISRDDSKNSIYLQMNSLKTEDTAVYYCHYVHYASASTVLPAFGVDAWGQGTTVTVSS
# VL: DIVMTQSPLSLPVTPGEPASISCQASQELVHMNRNTYLHWYQQKPGQAPRLLIYKVSNRFPGVPDRFSGSGSGTDFTLKISRVEAEDVGVYYCAQGTSVPFTFGQGTKLEIK
# B2: H183/L072 VH A54F (antibody, name in Kabat numbering, V domains shown)
# VH: B1 VH with E57F
# VL: B1 VL
# B3: H183/L072 VH A54G (antibody, name in Kabat numbering, V domains shown)
# VH: B1 VH with E57G
# VL: B1 VL
# B4: H183/L072 VH A54H (antibody, name in Kabat numbering, V domains shown)
# VH: B1 VH with E57H
# VL: B1 VL
# B5: H183/L072 VH A54I (antibody, name in Kabat numbering, V domains shown)
# VH: B1 VH with E57I
# VL: B1 VL
# B6: H183/L072 VH A54K (antibody, name in Kabat numbering, V domains shown)
# VH: B1 VH with E57K
# VL: B1 VL
# B7: H183/L072 VH A54L (antibody, name in Kabat numbering, V domains shown)
# VH: B1 VH with E57L
# VL: B1 VL
# B8: H183/L072 VH A54M (antibody, name in Kabat numbering, V domains shown)
# VH: B1 VH with E57M
# VL: B1 VL
# B9: H183/L072 VH A54N (antibody, name in Kabat numbering, V domains shown)
# VH: B1 VH with E57N
# VL: B1 VL
# B10: H183/L072 VH A54P (antibody, name in Kabat numbering, V domains shown)
# VH: B1 VH with E57P
# VL: B1 VL
# B11: H183/L072 VH A54Q (antibody, name in Kabat numbering, V domains shown)
# VH: B1 VH with E57Q
# VL: B1 VL
# B12: H183/L072 VH A54R (antibody, name in Kabat numbering, V domains shown)
# VH: B1 VH with E57R
# VL: B1 VL
# B13: H183/L072 VH A54S (antibody, name in Kabat numbering, V domains shown)
# VH: B1 VH with E57S
# VL: B1 VL
# B14: H183/L072 VH A54T (antibody, name in Kabat numbering, V domains shown)
# VH: B1 VH with E57T
# VL: B1 VL
# B15: H183/L072 VH A54V (antibody, name in Kabat numbering, V domains shown)
# VH: B1 VH with E57V
# VL: B1 VL
# B16: H183/L072 VH A54W (antibody, name in Kabat numbering, V domains shown)
# VH: B1 VH with E57W
# VL: B1 VL
# B17: H183/L072 VH A54Y (antibody, name in Kabat numbering, V domains shown)
# VH: B1 VH with E57Y
# VL: B1 VL
# B18: H183/L072 VH A56D (antibody, name in Kabat numbering, V domains shown)
# VH: B1 VH with E57A, A59D
# VL: B1 VL
# B19: H183/L072 VH A56E (antibody, name in Kabat numbering, V domains shown)
# VH: B1 VH with E57A, A59E
# VL: B1 VL
# B20: H183/L072 VH A56F (antibody, name in Kabat numbering, V domains shown)
# VH: B1 VH with E57A, A59F
# VL: B1 VL
# B21: H183/L072 VH A56G (antibody, name in Kabat numbering, V domains shown)
# VH: B1 VH with E57A, A59G
# VL: B1 VL
# B22: H183/L072 VH A56H (antibody, name in Kabat numbering, V domains shown)
# VH: B1 VH with E57A, A59H
# VL: B1 VL
# B23: H183/L072 VH A56I (antibody, name in Kabat numbering, V domains shown)
# VH: B1 VH with E57A, A59I
# VL: B1 VL
# B24: H183/L072 VH A56K (antibody, name in Kabat numbering, V domains shown)
# VH: B1 VH with E57A, A59K
# VL: B1 VL
# B25: H183/L072 VH A56L (antibody, name in Kabat numbering, V domains shown)
# VH: B1 VH with E57A, A59L
# VL: B1 VL
# B26: H183/L072 VH A56M (antibody, name in Kabat numbering, V domains shown)
# VH: B1 VH with E57A, A59M
# VL: B1 VL
# B27: H183/L072 VH A56N (antibody, name in Kabat numbering, V domains shown)
# VH: B1 VH with E57A, A59N
# VL: B1 VL
# B28: H183/L072 VH A56P (antibody, name in Kabat numbering, V domains shown)
# VH: B1 VH with E57A, A59P
# VL: B1 VL
# B29: H183/L072 VH A56Q (antibody, name in Kabat numbering, V domains shown)
# VH: B1 VH with E57A, A59Q
# VL: B1 VL
# B30: H183/L072 VH A56R (antibody, name in Kabat numbering, V domains shown)
# VH: B1 VH with E57A, A59R
# VL: B1 VL
# B31: H183/L072 VH A56S (antibody, name in Kabat numbering, V domains shown)
# VH: B1 VH with E57A, A59S
# VL: B1 VL
# B32: H183/L072 VH A56T (antibody, name in Kabat numbering, V domains shown)
# VH: B1 VH with E57A, A59T
# VL: B1 VL
# B33: H183/L072 VH A56V (antibody, name in Kabat numbering, V domains shown)
# VH: B1 VH with E57A, A59V
# VL: B1 VL
# B34: H183/L072 VH A56W (antibody, name in Kabat numbering, V domains shown)
# VH: B1 VH with E57A, A59W
# VL: B1 VL
# B35: H183/L072 VH A56Y (antibody, name in Kabat numbering, V domains shown)
# VH: B1 VH with E57A, A59Y
# VL: B1 VL
# B36: H183/L072 VH A57D (antibody, name in Kabat numbering, V domains shown)
# VH: B1 VH with E57A, A60D
# VL: B1 VL
# B37: H183/L072 VH A57E (antibody, name in Kabat numbering, V domains shown)
# VH: B1 VH with E57A, A60E
# VL: B1 VL
# B38: H183/L072 VH A57F (antibody, name in Kabat numbering, V domains shown)
# VH: B1 VH with E57A, A60F
# VL: B1 VL
# B39: H183/L072 VH A57G (antibody, name in Kabat numbering, V domains shown)
# VH: B1 VH with E57A, A60G
# VL: B1 VL
# B40: H183/L072 VH A57H (antibody, name in Kabat numbering, V domains shown)
# VH: B1 VH with E57A, A60H
# VL: B1 VL
# B41: H183/L072 VH A57I (antibody, name in Kabat numbering, V domains shown)
# VH: B1 VH with E57A, A60I
# VL: B1 VL
# B42: H183/L072 VH A57K (antibody, name in Kabat numbering, V domains shown)
# VH: B1 VH with E57A, A60K
# VL: B1 VL
# B43: H183/L072 VH A57L (antibody, name in Kabat numbering, V domains shown)
# VH: B1 VH with E57A, A60L
# VL: B1 VL
# B44: H183/L072 VH A57M (antibody, name in Kabat numbering, V domains shown)
# VH: B1 VH with E57A, A60M
# VL: B1 VL
# B45: H183/L072 VH A57N (antibody, name in Kabat numbering, V domains shown)
# VH: B1 VH with E57A, A60N
# VL: B1 VL
# Biological target: T1, Human CD3eg linker
# Experiment: Biacore SPR, vs template H183/L072
row,Binder,fold change of affinity [fold]
1,B1,1
2,B2,1.2
3,B3,1
4,B4,1.1
5,B5,0.7
6,B6,1.1
7,B7,1.1
8,B8,1
9,B9,1.1
10,B10,0
11,B11,1.1
12,B12,1.1
13,B13,1
14,B14,0.9
15,B15,0.7
16,B16,1.1
17,B17,1
18,B18,0.5
19,B19,0.6
20,B20,0.6
21,B21,0.7
22,B22,0.9
23,B23,0.6

row,Binder,fold change of affinity [fold]
1,B24,1.3
2,B25,0.7
3,B26,1
4,B27,0.9
5,B28,0.3
6,B29,1
7,B30,1.3
8,B31,0.9
9,B32,0.7
10,B33,0.7
11,B34,0.8
12,B35,0.7
13,B36,1
14,B37,1
15,B38,0.4
16,B39,0.7
17,B40,0.9
18,B41,0.6
19,B42,1.5
20,B43,0.5
21,B44,0.9
22,B45,0.7
